Among the data in the supplement of paper PMC10567573 are protein stability index values, retold here.

The chains are these.
B1: TTC32 (parent)
chain: YSAYIRRCACAASSDESPGSKCSP
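Further: lentivirally expressed fusions sorted by FACS into six bins by GFP to DsRed ratio, PSI derived from sequencing read proportions per bin multiplied by bin number.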

Variants of B1 are the subject of this series. Description: protein stability index of a GFP-peptide fusion (GPS, HEK-293T) (PSI 1-6); higher = more stable. To be noted: c terminus: a fixed tail appended.
As to YSAYIRRCACAASSDESPGSKNSP, the protein stability index came to 2.28.
On to YSAYIRRCACAASSDESPGSKESP, for which the protein stability index came to 2.96.
Take YSAYIRRCACAASSDESPGSKGSP: the protein stability index came out at 2.35.
The same measure for YSAYIRRCACAASSDESPGSKLSP: 1.78.
Turning to YEAYIRRCACAASSDESPGSKCSP, the protein stability index came to 2.7.
YSAHIRRCACAASSDESPGSKCSP: the protein stability index was 2.12.
Take YSAEIRRCACAASSDESPGSKCSP: the protein stability index was determined as 3.34.
As to YSAYIFRCACAASSDESPGSKCSP, the protein stability index was determined as 2.64.
The value for YSAYIARCACAASSDESPGSKCSP was 2.07.
Take YSAYIERCACAASSDESPGSKCSP: the protein stability index worked out at 2.9.
Turning to YSAYIRRCACAASSDESNGSKCSP, the protein stability index amounted to 2.33.
Take YSAYIRRCACAASSDESDGSKCSP: the protein stability index amounted to 2.45.
The value for YSAYIRRGACAASSDESPGSKCSP was 2.87; that for YSAYIRRVACAASSDESPGSKCSP was 2.67; that for YSAYIRRFACAASSDESPGSKCSP was 2.
In the case of YSAYIRRRACAASSDESPGSKCSP, the protein stability index was determined as 2.99.
For YSAYIRRCACAASSDESPGNKCSP, the protein stability index came to 2.11.
Turning to YSAYIRRCACAASSDESPGGKCSP, the protein stability index turned out to be 1.97.
In the case of YSAYIRRCACAASSDESPGMKCSP, the protein stability index was 2.12.
The value for YSAYIRRCACAASSDESPGAKCSP was 2.13.
In the case of YSAYIRRCACAASSDESPGIKCSP, the protein stability index is 1.85.
For the variant YSAYIRRCAEAASSDESPGSKCSP, the protein stability index came to 3.78.
On to YSAYIRRCARAASSDESPGSKCSP, for which the protein stability index stood at 2.78.
The same measure for YSAYIRRCAGAASSDESPGSKCSP: 3.46; for YSAYIRRCAHAASSDESPGSKCSP: 2.92.
The same measure for NSAYIRRCACAASSDESPGSKCSP: 2.96; for VSAYIRRCACAASSDESPGSKCSP: 2.17; for SSAYIRRCACAASSDESPGSKCSP: 2.54.
In the case of KSAYIRRCACAASSDESPGSKCSP, the protein stability index was 2.75.
In the case of ISAYIRRCACAASSDESPGSKCSP, the protein stability index was 1.72.
Consider YSAYIRRCGCAASSDESPGSKCSP, for which the protein stability index turned out to be 1.82.
With YSAYIRRCLCAASSDESPGSKCSP, the protein stability index is 2.26.
In the case of YSAYIRRCRCAASSDESPGSKCSP, the protein stability index is 2.66.
Take YSAYIRRCFCAASSDESPGSKCSP: the protein stability index is 1.76.
As for YSAYIRRCQCAASSDESPGSKCSP, the protein stability index was 2.25.
With YSAYIRRCACAAYSDESPGSKCSP, the protein stability index stood at 2.13.
YSAYIRRCACAAESDESPGSKCSP: the protein stability index stood at 2.03.
Regarding YSAYIRRCACAASADESPGSKCSP, the protein stability index worked out at 2.16.
Regarding YSAYIRRCACAASHDESPGSKCSP, the protein stability index was 2.74.
For YSAYIRRCACAASVDESPGSKCSP, the protein stability index turned out to be 1.53.
As to YSAYIRRCACAASDDESPGSKCSP, the protein stability index was determined as 2.38.
For the variant YSAYIRRCACAASTDESPGSKCSP, the protein stability index was determined as 1.93.
For the variant YSAYIRRCACAASWDESPGSKCSP, the protein stability index worked out at 1.92.
In the case of YSAYIRRCACAASPDESPGSKCSP, the protein stability index came to 2.29.
Consider YSAYIRRCACAASSDPSPGSKCSP, for which the protein stability index came to 2.01.
Regarding YSAYIRRCACAASSDSSPGSKCSP, the protein stability index was 1.94.
Turning to YSAYIRRCACAASSDKSPGSKCSP, the protein stability index stood at 1.53.
The value for YSAYIRRCACAASSDCSPGSKCSP was 1.83; that for YSAYIRRCACAASSDDSPGSKCSP was 2.06; that for YSAYIRRCACAASSDLSPGSKCSP was 1.58.
Turning to YSAYIRRCACAASSDWSPGSKCSP, the protein stability index is 3.48.
Take YSAYIRRCACAASSDGSPGSKCSP: the protein stability index is 1.8.
For YSAYIRRCACAASSDESPGSKCQP, the protein stability index is 2.05.
For the variant YSAYIRRCACAASSDESPGSKCFP, the protein stability index worked out at 1.9.
In the case of YSAYIRRCACAASSDESPGSKCIP, the protein stability index stood at 1.4.
On to YSAYIRRCACAISSDESPGSKCSP, for which the protein stability index is 1.78.
In the case of YSAYIRRCACAFSSDESPGSKCSP, the protein stability index is 2.15.
Regarding YSAYIRRCACAESSDESPGSKCSP, the protein stability index was 2.55.
Regarding YSAYCRRCACAASSDESPGSKCSP, the protein stability index is 2.15.
As to YSAYFRRCACAASSDESPGSKCSP, the protein stability index worked out at 2.51.
The value for YSAYNRRCACAASSDESPGSKCSP was 3.13; that for YSAYERRCACAASSDESPGSKCSP was 3.46; that for YSAYWRRCACAASSDESPGSKCSP was 3.7.
Regarding YSAYARRCACAASSDESPGSKCSP, the protein stability index came to 1.86.
Turning to YSMYIRRCACAASSDESPGSKCSP, the protein stability index is 2.15.
Turning to YSEYIRRCACAASSDESPGSKCSP, the protein stability index was 1.92.
On to YSCYIRRCACAASSDESPGSKCSP, for which the protein stability index is 2.02.
As to YSNYIRRCACAASSDESPGSKCSP, the protein stability index came out at 1.54.
YSAYIRMCACAASSDESPGSKCSP: the protein stability index was 2.14.
Regarding YSAYIRCCACAASSDESPGSKCSP, the protein stability index was found to be 1.55.
In the case of YSAYIRLCACAASSDESPGSKCSP, the protein stability index is 2.16.
YSAYIRECACAASSDESPGSKCSP: the protein stability index came to 2.81.
As for YSAYIRACACAASSDESPGSKCSP, the protein stability index turned out to be 2.17.
For the variant YSAYIRRCACAASSDESPCSKCSP, the protein stability index came to 4.24.
As for YSAYIRRCACAASSDESPKSKCSP, the protein stability index was determined as 2.29.
The same measure for YSAYIRRCACAASSDESPTSKCSP: 1.91.
The same measure for YSAYIRRCACAASSDEIPGSKCSP: 2.66; for YSAYIRRCACAASSDEWPGSKCSP: 1.78; for YSAYIRRCACAASSDETPGSKCSP: 2.37.
The value for YSAYIRRCACAASSDEVPGSKCSP was 2.02.
In the case of YSAYIRRCACAASSDEEPGSKCSP, the protein stability index is 2.38.
The value for YSAYIRRCACAASSDEDPGSKCSP was 2.05; that for YSAYIRRCACGASSDESPGSKCSP was 2.08.
For the variant YSAYIRRCACIASSDESPGSKCSP, the protein stability index came to 1.94.
For YSAYIRRCACPASSDESPGSKCSP, the protein stability index was found to be 2.29.
The value for YSAYIRRCACMASSDESPGSKCSP was 1.83; that for YSAYIRRCACAASSDESPGSFCSP was 2.22; that for YSAYIRRCACAASSDESPGSPCSP was 2.93.
On to YSAYIRRCACAASSIESPGSKCSP, for which the protein stability index is 2.06.
With YSAYIRRCACAASSLESPGSKCSP, the protein stability index came out at 1.61.
For YSAYIRRCACAASSDESPGSKCSI, the protein stability index came out at 2.25.
For YSAYIRRCACAASSDESPGSKCST, the protein stability index stood at 2.03.
The same measure for YSAYIRRCACAASSDESPGSKCSH: 2.54; for YSAYIRRCACAASSDESPGSKCSM: 2.24.
